Three molecules from patent publication US7410775B2, “Method for making recombinant peptides or proteins using soluble endoproteases” (Bio-Ker S.R.L., priority 2000, dated 2008) can be followed below.

Residues, ends and D or L forms follow the SMILES beside them. *: point of attachment. pNA = O=[N+]([O-])c1ccc(N*)cc1; Cbz = O=C(OCc1ccccc1)*

Data set [1] deals with T1, Saccharomyces cerevisiae Kex2 protease, soluble secreted form ss-Kex2-C613 (parent Kex2 SEQ ID NO: 4) (Saccharomyces cerevisiae, UniProt P13134).
T1 construct: pro-region cut at Lys108-Arg109; from yeast
T1 sequence (P13134 1-613): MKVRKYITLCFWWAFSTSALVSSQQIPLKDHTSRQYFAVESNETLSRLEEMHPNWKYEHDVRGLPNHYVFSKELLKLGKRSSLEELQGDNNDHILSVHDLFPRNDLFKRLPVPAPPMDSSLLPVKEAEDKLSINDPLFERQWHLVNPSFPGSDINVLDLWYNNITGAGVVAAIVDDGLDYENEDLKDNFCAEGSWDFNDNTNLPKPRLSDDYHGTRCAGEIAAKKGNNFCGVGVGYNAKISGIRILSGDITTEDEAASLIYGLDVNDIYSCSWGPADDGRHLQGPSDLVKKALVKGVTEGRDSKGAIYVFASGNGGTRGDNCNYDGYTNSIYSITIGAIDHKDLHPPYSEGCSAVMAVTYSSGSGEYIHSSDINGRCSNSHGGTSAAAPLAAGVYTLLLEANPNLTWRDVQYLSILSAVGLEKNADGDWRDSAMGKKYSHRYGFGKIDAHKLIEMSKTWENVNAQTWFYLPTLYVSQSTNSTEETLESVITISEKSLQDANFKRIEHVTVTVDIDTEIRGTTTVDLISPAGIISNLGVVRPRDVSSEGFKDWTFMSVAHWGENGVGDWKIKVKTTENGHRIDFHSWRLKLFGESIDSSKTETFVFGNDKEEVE
Kind of data set: Kinetic constants of ss-Kex2-C613 (single initial substrate concentration, progress curve, Michaelis-Menten fit). The format is biochemical. Here is the method: (§1) The enzyme activity was determined by a calorimetric test which exploits the capacity of the enzyme to hydrolyse the substrate Z-L-tyrosine-L-lysine-L-arginine-p-nitroanilide (Z-Y-K-R-pNA). The incubation mixture comprises 0.1 mM Z-Y-K-R-pNA in 0.2 M Hepes, pH 7.0 and 1 mM CaCl2, in a total volume of 1.5 ml at 37° C. The reaction is monitored at 405 nm, a wavelength at which the maximum decrease in the molar extinction coefficient (As), equal to 10.9 mM^−1 cm^−1, occurs. An enzyme unit is defined as being the quantity of enzyme that catalyses the transformation of 1 μmole of substrate per minute under the conditions described above. […]
(§2) The kinetic constants were determined by a simplified procedure which requires that measurements be carried out at a single initial concentration of substrate and until the substrate is exhausted. The method provides that, at various times, the average values of residual concentration and rate be determined and is applicable in those cases in which the enzyme catalyses an entirely irreversible reaction under the operating conditions, and is not subject to inhibition by product (Segel, I. H. (1975) Enzyme Kinetics, Wiley, New York). […]

The target in data set [2] is T2, Kluyveromyces lactis Kex1 protease, soluble secreted variant ss-Kex1-C600 (truncated at amino acid 600; parent Kex1 SEQ ID NO: 3) (Kluyveromyces lactis, UniProt P09231).
T2 sequence (P09231 103-600): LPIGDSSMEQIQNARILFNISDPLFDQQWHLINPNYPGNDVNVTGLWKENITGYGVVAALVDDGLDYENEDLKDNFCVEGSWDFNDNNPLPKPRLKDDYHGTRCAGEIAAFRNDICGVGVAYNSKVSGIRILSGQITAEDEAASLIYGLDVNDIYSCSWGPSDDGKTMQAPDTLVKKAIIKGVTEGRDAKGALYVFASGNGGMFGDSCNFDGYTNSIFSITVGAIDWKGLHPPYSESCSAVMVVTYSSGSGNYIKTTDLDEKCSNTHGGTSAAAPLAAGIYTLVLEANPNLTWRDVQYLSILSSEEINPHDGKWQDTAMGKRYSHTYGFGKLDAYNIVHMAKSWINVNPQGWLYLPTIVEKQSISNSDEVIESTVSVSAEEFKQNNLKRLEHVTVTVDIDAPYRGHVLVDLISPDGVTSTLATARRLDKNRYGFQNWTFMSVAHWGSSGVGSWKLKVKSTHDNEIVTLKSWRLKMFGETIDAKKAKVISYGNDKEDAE
Kind of data set: Kinetic constants of ss-Kex1-C600 (single initial substrate concentration, progress curve, Michaelis-Menten fit). The class given is biochemical. Here is the method: as §1, §2

Substrate in data set [3]: N=C(N)NCCC[C@H](NC(=O)[C@H](CCCCN)NC(=O)[C@H](Cc1ccc(O)cc1)NC(=O)OCc1ccccc1)C(=O)Nc1ccc([N+](=O)[O-])cc1
The description is as above. The class given is biochemical, Kluyveromyces lactis. The settings on record: other: ss-Kex1-C600; pH 7.0. Here is the method: The enzyme activity was determined by a calorimetric test which exploits the capacity of the enzyme to hydrolyse the substrate Z-L-tyrosine-L-lysine-L-arginine-p-nitroanilide (Z-Y-K-R-pNA). The incubation mixture comprises 0.1 mM Z-Y-K-R-pNA in 0.2 M Hepes, pH 7.0 and 1 mM CaCl2, in a total volume of 1.5 ml at 37° C. The reaction is monitored at 405 nm, a wavelength at which the maximum decrease in the molar extinction coefficient (As), equal to 10.9 mM^−1 cm^−1, occurs. An enzyme unit is defined as being the quantity of enzyme that catalyses the transformation of 1 μmole of substrate per minute under the conditions described above. Unless expressly indicated otherwise, the data presented in Table 2 refer to the activity secreted in the growth medium by derivatives of the W303 strain which was grown in a flask at 30° C., with agitation (220 rpm), in 1040 medium-2% galactose (except for strains NP255 and NP265 in which the carbon source added to the growth medium was 2% glucose). Various samples were taken along the growth curve for each strain. […] The invention is therefore not limited by the type of promoter used, as long as the levels of secretion of the endoprotease of the invention are satisfactory.
The kinetic constants were determined by a simplified procedure which requires that measurements be carried out at a single initial concentration of substrate and until the substrate is exhausted. The method provides that, at various times, the average values of residual concentration and rate be determined and is applicable in those cases in which the enzyme catalyses an entirely irreversible reaction under the operating conditions, and is not subject to inhibition by product (Segel, I. H. (1975) Enzyme Kinetics, Wiley, New York). The results so obtained were processed using the Grafit programme, which permitted the interpolation of the Michaelis-Menten profile and the determination of the values of Km and Vmax, presented in Table 3. kcat and the kcat/Km ratio were then obtained from those values and from the enzyme concentration.

Substrate in data set [4]: N=C(N)NCCC[C@H](NC(=O)[C@H](CCCCN)NC(=O)[C@H](Cc1ccc(O)cc1)NC(=O)OCc1ccccc1)C(=O)Nc1ccc([N+](=O)[O-])cc1
Kind of data set: Kinetic constants of ss-Kex2-C613 (single initial substrate concentration, progress curve, Michaelis-Menten fit). The conditions noted are these: other: ss-Kex2-C613; pH 7.0. The format is biochemical, Saccharomyces cerevisiae. On the procedure:
as §1, §2

As for `N=C(N)NCCC[C@H](NC(=O)[C@H](CCCCN)NC(=O)[C@H](Cc1ccc(O)cc1)NC(=O)OCc1ccccc1)C(=O)Nc1ccc([N+](=O)[O-])cc1` [Z-Y-K-R-pNA, Z-L-tyrosine-L-lysine-L-arginine-p-nitroanilide] (Cbz-Tyr-Lys-Arg-pNA), the Vmax in data set [1] is given as 1029 (ΔA min^−1) × 10^3; in data set [2], 1720 (ΔA min^−1) × 10^3.

B1: Kluyveromyces lactis Kex1 protease, soluble secreted variant ss-Kex1-C600 (truncated at amino acid 600; parent Kex1 SEQ ID NO: 3) (Kluyveromyces lactis NRRL … (protein)
chain: T2 sequence (P09231 103-600)
Turning to B1, in data set [3], the Km (as a rule, the concentration of substrate that gives half-maximal velocity) came to 61.4 µM; the kcat – broadly, the number of substrate molecules converted per active site and unit of time at saturation – was found to be 3070 s⁻¹; the kcat/Km – broadly, the turnover number divided by the Michaelis constant – stood at 5e+07 M⁻¹ s⁻¹.

B2: Saccharomyces cerevisiae Kex2 protease, soluble secreted form ss-Kex2-C613 (parent Kex2 SEQ ID NO: 4) (Saccharomyces cerevisiae S288C) (protein)
chain: T1 sequence (P13134 1-613)
notes: pro-region cut at Lys108-Arg109; from yeast
As to B2, the Km in data set [4] came to 56.8 µM.
